From PMC4254552 (Developmental cell, 2014)

T1: HIM-3-6His (C. elegans, UniProt G5EBG0 1-291)
T1 sequence (looked up): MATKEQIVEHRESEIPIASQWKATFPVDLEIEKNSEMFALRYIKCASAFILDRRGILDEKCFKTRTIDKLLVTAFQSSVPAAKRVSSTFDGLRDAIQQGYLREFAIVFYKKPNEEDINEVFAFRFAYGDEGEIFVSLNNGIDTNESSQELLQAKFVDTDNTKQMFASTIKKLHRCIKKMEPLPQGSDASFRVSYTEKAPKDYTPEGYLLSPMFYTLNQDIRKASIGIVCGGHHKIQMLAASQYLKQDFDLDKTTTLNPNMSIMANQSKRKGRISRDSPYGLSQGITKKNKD

T2: HIM-3 part of the chimeric protein HIM-3:HTP-3 motif #4 (C. elegans, UniProt G5EBG0 1-276)
T2 sequence (looked up): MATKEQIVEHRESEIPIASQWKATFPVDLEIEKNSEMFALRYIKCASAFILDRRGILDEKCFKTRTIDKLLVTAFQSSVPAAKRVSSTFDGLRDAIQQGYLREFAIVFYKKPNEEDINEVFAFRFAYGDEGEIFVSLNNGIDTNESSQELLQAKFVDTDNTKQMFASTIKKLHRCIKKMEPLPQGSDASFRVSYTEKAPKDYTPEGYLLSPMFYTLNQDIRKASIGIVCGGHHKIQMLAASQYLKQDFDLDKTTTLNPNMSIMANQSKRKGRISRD

B1: HTP-1 (untagged, co-expressed) (natural protein, C. elegans, UniProt Q20305 1-352, looked up)
chain: MAPLETIYDESLNKSADSIDDKKWSKLFPRIVSDPDRSSNFMTRAIYVAFSAVLRNRNILGQEYFTKNYITEKLKCMTLCFRNPRSNQIAQLLRNAGDATKDGFLKEVSLVITNNEGDLEAIEVFSMKFIYFENGGVVARLSTDKNGQEDPHFAKLAQLVYEGGDSVRDQMVTIVRSVQFLCTKVLEPLPEEFTANFRLEYTNDAPSNFRIDGFEDSSTFYTLPDDIQSATIGHLRPGCHAANMECWSMLMSDSYEAELTLKRHLDKVSDRHGFNPVNVLYKSFNSEDSDTSLSQATTESVNDQGGNETSPVDDITESLEKAQMSPIQTRPTTRRGADGSKTRSSPYSRSCK
B2: HTP-2 (co-expressed; tag not told) (natural protein, C. elegans, UniProt Q95XC8 1-352, looked up)
chain: MAPLENNYNESLNKSKDAIDDKTWSKLFPSIVSDPDRSSNFMIRAIYVVFSAVLRQRNILEKEYFSKNYITENLSCMTLSFKNLRAHQIAQLLRAAGDATKDGFLKEISLVVTEHDGDVEAIEVFSMKFIYFENGGVVARLSTDNNDQEDPHFAELAQLRYEGAESVRDQMVTIVRSVQFLCTKVLEPLPAEFTANFRLKYTNDAPSNFRIDGFDDSSTFYTLPDGIQSVTIGHLRPGHHAAHMQCWSKSMSDSYAAELTLKGHLDKVSDMYAFNPVNVLYKSFNSEDTDPGLSQDTTESANDQGGNVTSPVDNITDSLEKTQMSPIKMRPTTRRGADDSKTRSSPYSRSRK

What was measured:
[1] = target: T1, HIM-3-6His
[2] = target: T2, HIM-3 part of the chimeric protein …; experiment: crystal structure

Binder | stoichiometry N [1] | binding result [2]
B1 | 1 HTP-1 per HIM-3 | 
B2 | 1 HTP-2 per HIM-3 | 
RHYGRVSSILDVAGS (peptide, UniProt O01820 649-663, looked up) [HTP-3 motif #4 (residues 649-663) as placed in the HIM-3 chimera] |  | binds
